Data as given in the supplement of paper PMC12042874.
± gives the uncertainty stated by the source.

Experiment: amyloid nucleation score (Sup35N fusion, yeast selection) (log enrichment); library NNK3; higher = more nucleation; inactive = no reads after selection
How it was run: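 Three technical output replicates were used for random libraries. Psi-negative yeast expressing peptides of 20 random codons fused to Sup35N were induced with 100 μM copper sulfate for 24 hours and grown 7 days at 30°C on medium lacking adenine and uracil, and input and output plasmid inserts were Illumina-sequenced, excluding sequences with under 100 input reads. The nucleation score is the DiMSum log enrichment of output over input reads, centred on the mode score of non-aggregating sequences.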

Substance	amyloid nucleation score
TNTPIMKCELHTRDFVKVIS	inactive
TNYICCSFRFPWNHSYV	3.4 ± 0.061
TNYNHCKCEIGLGHILARFT	inactive
TPHESLRTCFLTKR	inactive
TPHFYLIYALGISLIFWFVE	inactive
TPSRLPQAACWQ	inactive
TPVTGQQWNCFCTILHSE	2.52 ± 0.08
TQDGELV	inactive
TQHTTYTPLPHTELRLPYPQ	inactive
TQMILWVM	inactive
TQRTGY	inactive
TRFARA	inactive
TRFGRSANWLFFSAPTGRQN	inactive
TRFVTRNDMYLRYILVCRVA	inactive
TRHWDVRSRISRTLVCFGLK	inactive
TRLWDKD	inactive
TRNLPTN	inactive
TRTHPDVNRAKMDVKGDAKI	inactive
TSFGPKLPTGVFVCEGSNDR	inactive
TSGGQRAAVWIYFTNEVMKY	0.207 ± 0.34
TSILEWVSFDGSM	inactive
TSLLGLRKHFLPHLIYMRNS	inactive
TSQGIYHVVCCSSSEFRTLG	2.48 ± 0.055
TSRDQPRNVYVVVAVI	inactive

Substance	amyloid nucleation score
TSRNESHTSDYSLLNHNSLL	inactive
TSSLDEGTFV	0.644 ± 0.16
TSTRSEAFRVVVTLPVAVNW	inactive
TSVDGLCSFMDLRL	inactive
TSVTSTSLSGSLSAV	inactive
TSVWVYTVPSFVGNDIDTS	inactive
TSWLVWRKGNGLGGNGQQRR	inactive
TSYNFTQLTPILVKLMQMNL	inactive
TTDFSNMLDLSGVKVSGVLP	inactive
TTEFKIDR	inactive
TTFIN	inactive
TTFSGETYEYYMFMCW	0.532 ± 0.17
TTFSLTLIGFNDSGVKLLM	2.21 ± 0.069
TTIFLDS	inactive
TTLVSNWQCSMGCCEVLWR	3.32 ± 0.075
TTMWTIKENFTWIVITVDSI	inactive
TTPYWRRECRWSEFGFA	inactive
TTSNMGVVHYL	inactive
TVDVIRYISPDLDKTSYEWK	inactive
TVEQYWRNEREWF	inactive
TVGGEIVNSLGVWCYRVCKR	0.723 ± 0.26
TVGSRGSTPHCTLLLVSWSL	inactive
TVGVKKYAMGRRYIV	inactive
TVHILANRPRAQYD	inactive

Substance	amyloid nucleation score
TVLVAGIGCEWSMGESTAMW	inactive
TVPDRDFMFIRIRSHCYVVD	inactive
TVPIILVSTVRANMFFETRN	1.54 ± 0.093
TVQFMRKAQRQFSGA	inactive
TVRDTEFLWFGDWLRRGSLS	-0.034 ± 0.77
TVTLRRYLSMERPYTSIFSI	inactive
TVTWDWNRSEEGRCYLLLWV	inactive
TWCGFWTLMERVYHRRWTSL	inactive
TWDLY	inactive
TWWCLN	inactive
TYCLKLMSQAAPTIEKT	inactive
TYDTGWKCREPNVTIFNVWL	2.91 ± 0.053
TYEVRTCWDWQRMGSMYLAR	inactive
TYFKSGRNILAHIYMWLILG	inactive
TYFLSDWWRDRSNWLWFLAH	inactive
TYKHTSWETLDDVFSDGSSS	inactive
TYLIWLGHRAHPMSLLHSFA	inactive
TYLNTVRLKSGMMMNMKSTR	inactive
TYPVGPGGFFWDLGCV	inactive
TYRVLE	inactive
TYTWKVTNSTISQLFGYLAD	inactive
TYYADTLAFNSTS	inactive
TYYLSMN	inactive
VAAMSVFSVGCLINIALRSN	0.93 ± 0.2

Substance	amyloid nucleation score
VACCAGFDNRAVLWGCANPI	inactive
VAFMIHYMKLPKYSHPWVHN	0.041 ± 0.59
VALWLVWLFYMRFRGSSFEL	inactive
VASIFRVYAVVGWSVVLVGV	inactive
VAVLVNALSLPEVGKGVVRR	1.84 ± 0.083
VCEGMKMAALRYREERC	inactive
VCLFHDSLRDNYRT	inactive
VCMLVMYESRLNVEKAVLLG	-0.083 ± 0.64
VCSCAHGHTGSEESRSVGSA	inactive
VCSSGQKSLKMLRIFHIFNP	-0.352 ± 0.87
VCSVVARWFVESFCCISWMC	inactive
VCTLGFFSKMGRGPRYYS	inactive
VCVLMIFNIVRRGMYSSARV	inactive
VCVNSLPYLICDIRVIIDRG	1.11 ± 0.13
VCVSVRDTCGLCLLVYDNTV	2.11 ± 0.079
VCYYRQACTITNLLVMVFVC	inactive
VDEADVRKHMT	inactive
VDMSNFRANVVTHSPIGGLR	inactive
VDNSFEYIWDLFTVDHMSGA	inactive
VDSHANHGSNHRWSASDEIS	inactive
VDSSRIKCSNVN	inactive
VDVAVFLEMLYCWCRDGFTR	1.79 ± 0.1
VDYLRVLWQAQFGNFELWSR	inactive
VEATSTRGDTAPVPERGMLG	-1.01 ± 1.7

Substance	amyloid nucleation score
VEFSAIFFCTLLD	inactive
VEFSVFGERNVIYGVLSWRS	1.12 ± 0.12
VEGRMLSYLHVIYMYSGWRK	inactive
VEKCSVCLPTFEGWPLSKRF	inactive
VERRMTKVWTGARSPGRVFW	inactive
VESYPVGLY	1.56 ± 0.068
VEVRVYTFF	2.23 ± 0.074
VEWLTSLVVIFWNFGKNKFL	inactive
VFAAKGPTMYRSARVS	inactive
VFFFMNQSRRDRIE	1.72 ± 0.11
VFFLNIAIIRVECSYPLVRK	-0.223 ± 0.75
VFFSWPMARKCEGSEDHPNF	0.005 ± 0.98
VFFYAASD	inactive
VFGFMCNYSFVATSRLCVIG	inactive
VFLHVWCGRVGKL	-0.089 ± 0.98
VFMGQDLWMSLGAEDEDLAW	inactive
VFNMLGFSDY	inactive
VFSVHVWQCSNLFQRMLCNF	1.06 ± 0.14
VFTVF	inactive
VFVLCSSLYEGFTYYRWISF	inactive
VFVMETTKLFSNDIGVRGGW	0.717 ± 0.15
VFVNSYS	inactive
